In the assay the target is T1, GST-fusion protein containing the PDZ domain of Dsh (Drosophila, UniProt P51140 250-338).
T1 construct: One of the smaller segments of the DM region made as GST fusions; not shown: glutathione S-transferase (GST) from a GST expression vector
T1 chain: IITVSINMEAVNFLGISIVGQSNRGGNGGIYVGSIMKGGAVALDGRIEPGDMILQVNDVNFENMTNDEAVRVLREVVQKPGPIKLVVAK
Description: GST pull-down with segments of the DM region; in vitro kinase assay. The procedure: Lysates in buffer A with PIC were incubated with anti-Dsh or anti-DAK antibodies for 2-4 hours at 4° C. The immune complexes were collected by incubation with protein-A beads for 2 hours at 4° C., followed by centrifugation. The immunoprecipitates were then washed three times for 5-10 minutes each with Buffer A and subjected to SDS-PAGE or in vitro kinase assay. For precipitation by GST fusion proteins containing various regions of Dsh, lysates in buffer A with PIC were incubated for 2-4 hours at 4° C. with fusion proteins immobilized on glutathione agarose beads, followed by brief centrifugation. The glutathione beads were then washed three time for 5-10 minutes each with Buffer A and subjected to in vitro kinase assay, as described below.
The DAK activity was determined by a solid phase in vitro kinase assay after being brought down by immunoprecipitation (IP) or GST precipitation. The washed protein A or glutathione beads were then washed once with kinase buffer (50 mM Tris (pH 7.6), 10 mM MgCl₂) for 5 minutes at 4° C. The kinase reactions were carried out at room temperature for 30 minutes in a reaction volume of 20 μl containing 5:1 washed IP or GST beads, 1 μl [γ-³²P] ATP (10 μCi at 5000 Ci/mmol, Amersham) and 14 μl kinase buffer. […] The membranes were exposed to X-ray films or quantitated as indicated. […]

B1: Dishevelled Associated Kinase (DAK), endogenous kinase activity from Drosophila embryo and Clone-8 cell lysates (enzyme)
chain: MSTAMRTTLQSVPEALPADSVSNGTASNVAAPAAPVSSATNAVPPLAAVSSTTATYATNSISTSSHSVKDQQQQQQQQQHDSANANIVSLPPTTTPVANTNTMMPIVTSSNSATSNSTAATPTPASGAAATGGVGSVSQGPATVSASAANTNHSHQHSHQHHHHVANNMTTDGARLSSNNSAVVASSAINHHHHHTPGSGVAPTVNKNVLSTHSAHPSAIKQRTSSAKGSPNMQMRSSAPMRWRATEEHIGKYKLIKTIGKGNFAKVKLAKHLPTGKEVAIKIIDKTQLNPGSLQKLFREVRIMKMLDHPNIVKLFQVIETEKTLYLIMEYASGGEVFDYLVLHGRMKEKEARVKFRQIVSAVQYCHQKRIIHRDLKAENLLLDSELNIKIADFGFSNEFTPGSKLDTFCGSPPYAAPELFQGKKYDGPEVDVWSLGVILYTLVSGSLPFDGSTLRELRERVLRGKYRIPFYMSTDCENLLRKFLVLNPAKRASLETIMGDKWMNMGFEEDELKPYIEPKADLADPKRIEALVAMGYNRSEIEASLSQVRYDDVFATYLLLGRKSTDPESDGSRSGSSLSLRNISGNDAGANAGSASVQSPTHRGVHRSISASSTKPSRRASSGAETLRVGPTNAAATVAAATGAVGAVNPSNNYNAAGSAADRASVGSNFKRQNTIDSATIKENTARLAAQNQRPASATQKMLTTADTTLNSPAKPRTATKYDPTNGNRTVSGTSGIIPRRSTTLYEKTSSTEKTNVIPAETKMASAVKSSRHFPRNVPSRSTFHSGQTRARNNTALEYSGTSGASGDSSHPGRMSFFSKLSSRFSKRPNQ
notes: Native activity from lysates, not a defined construct; also called Dishevelled associated kinase activity; Dsh associated kinase activity
For B1, the binding result was “no binding”.

(Values after patent US20040005688A1 (University of California, published 2004).)
